In patent US20150218281A1 (Ablynx, published 2015):
Like-named read-outs stand apart in the source and are kept apart here. Blank lines part the entries; values can stand above or below the binder they belong to.

What was measured:
[1] = molecular target: T1, recombinant human OX40L (extracellular domain, R&D Systems) (human, UniProt P23510 51-183); test: cell-based or functional assay
T1 sequence: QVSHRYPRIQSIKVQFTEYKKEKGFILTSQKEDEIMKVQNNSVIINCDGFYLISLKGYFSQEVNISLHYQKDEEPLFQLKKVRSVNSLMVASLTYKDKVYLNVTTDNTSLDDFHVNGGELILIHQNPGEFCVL

hCD30L [2] = molecular target: T2, hCD30L (human, UniProt P32971 63-234); test: competition ELISA: fixed concentration of OX40L01E07 pre-incubated with a concentration series of the competitor, then added to biotinylated hOX40L captured on neutravidin; OD450nm
T2 sequence (looked up): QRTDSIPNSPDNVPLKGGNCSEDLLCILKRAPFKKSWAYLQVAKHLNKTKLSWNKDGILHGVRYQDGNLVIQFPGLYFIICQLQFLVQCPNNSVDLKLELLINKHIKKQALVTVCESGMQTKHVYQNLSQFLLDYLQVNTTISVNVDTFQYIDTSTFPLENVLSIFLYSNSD
Procedure: (§1) The binding of OX40L blocking Nanobodies to other TNF family members was tested in a competition ELISA.
(§2) Detection was done using sTMB (SDT Reagents, Baesweiler, Germany), the reaction was stopped with 1M HCl and absorbance was determined at 450 nm.

[3] = molecular target: T3, human Receptor Activator for Nuclear Factor kappa B Ligand (human, UniProt O14788 143-317, limits assumed); test: as above
T3 construct: also called hRANKL; RANKL
T3 sequence (looked up): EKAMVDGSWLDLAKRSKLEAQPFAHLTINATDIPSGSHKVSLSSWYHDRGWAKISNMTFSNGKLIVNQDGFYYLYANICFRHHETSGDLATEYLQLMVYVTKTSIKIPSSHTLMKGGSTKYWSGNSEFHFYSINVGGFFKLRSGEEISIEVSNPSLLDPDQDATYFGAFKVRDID
Procedure: as §1, §2

[4] = molecular target: T4, human tumor necrosis factor-related apoptosis inducing ligand (human, UniProt P50591 114-281); test: as above
T4 construct: also called hTRAIL; TRAIL
Procedure: as §1, §2

hCD40L [5] = molecular target: T5, hCD40L (human, UniProt P29965 113-261); test: as above
T5 sequence (looked up): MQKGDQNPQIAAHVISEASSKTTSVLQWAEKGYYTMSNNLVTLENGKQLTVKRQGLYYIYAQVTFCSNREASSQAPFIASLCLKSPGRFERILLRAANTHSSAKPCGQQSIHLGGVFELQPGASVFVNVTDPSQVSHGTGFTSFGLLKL
Procedure: as §1, §2

hTNF-alpha [6] = molecular target: T6, hTNF-alpha (human, UniProt P01375 77-233); test: as above
Procedure: as §1, §2

[7] = molecular target: T7, biotinylated hOX40L (R&D Systems, biotinylated in house) (human, UniProt P23510 51-183, biotinylated with Sulfo-NHS-LC-Biotin, sites not stated); test: hOX40L/hOX40 AlphaScreen, native sample
T7 construct: same bought protein as m10, biotinylated; also called biotinylated OX40L
T7 sequence: T1 sequence
Procedure: (§3) Next, streptavidin donor beads were added and incubated for an additional 1 hour. Fluorescence was measured by reading plates on the EnVision Multilabel Plate Reader using an excitation wavelength of 680 nm and an emission wavelength of 520 nm.
(§4) In the TSA assay, Nanobodies were diluted to a concentration of 0.2 mg/ml and melting temperature (Tm) was determined at different pH by stepwise increase in temperature in presence of Sypro Orange, a dye that binds to […] residues that become exposed upon unfolding of the protein, using the Lightcycler (Roche) for detection. […] In SEC analysis, the Nanobodies were analyzed on a Phenomenex matrix to allow detection of multimers, aggregates or ‘stickyness’.

[8] = molecular target: T7, biotinylated hOX40L (R&D Systems, …); test: hOX40L/hOX40 AlphaScreen, assay 2, native
Procedure: as §3, §4

[9] = molecular target: T7, biotinylated hOX40L (R&D Systems, …); test: hOX40L/hOX40 AlphaScreen, assay 1, native
Procedure: Next, streptavidin donor beads were added and incubated for an additional 1 hour. Fluorescence was measured by reading plates on the EnVision Multilabel Plate Reader using an excitation wavelength of 680 nm and an emission wavelength of 520 nm. […]

hCD30L [10] = molecular target: T2, hCD30L; test: competition ELISA on neutravidin captured biotinylated hOX40L
Procedure: as §1, §2

[11] = molecular target: T3, human Receptor Activator for Nuclear …; test: as above
Procedure: as §1, §2

[12] = molecular target: T4, human tumor necrosis factor-related …; test: as above
Procedure: as §1, §2

hCD40L [13] = molecular target: T5, hCD40L; test: as above
Procedure: as §1, §2

hTNF-alpha [14] = molecular target: T6, hTNF-alpha; test: as above
Procedure: as §1, §2

[15] = molecular target: T7, biotinylated hOX40L (R&D Systems, …); test: hOX40L/hOX40 AlphaScreen, assay 2, heated at Tm+10 C
[16] = molecular target: T1, recombinant human OX40L (extracellular …); test: cell-based or functional assay; remark: listed apart in the source

T4 sequence (P50591 114-281 limits assumed): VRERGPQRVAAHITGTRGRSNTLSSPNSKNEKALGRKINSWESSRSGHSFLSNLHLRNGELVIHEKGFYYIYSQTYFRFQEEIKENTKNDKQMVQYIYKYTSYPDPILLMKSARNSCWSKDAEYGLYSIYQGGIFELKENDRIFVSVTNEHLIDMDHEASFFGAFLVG
T6 sequence (P01375 77-233 limits assumed): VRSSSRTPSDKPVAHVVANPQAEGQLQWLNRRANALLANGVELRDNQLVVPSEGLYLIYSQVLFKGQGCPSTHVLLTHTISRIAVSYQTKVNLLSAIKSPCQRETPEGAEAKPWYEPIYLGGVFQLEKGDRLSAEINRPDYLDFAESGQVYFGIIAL

- IC50, T cell assay with rec. hOX40L [1]: 1.48 nM
- binding result (hCD30L [2]): no binding
- binding result [3]: no binding
- binding result (hCD40L [5]): no binding
- binding result (hTNF-alpha [6]): no binding
- IC50 [7]: 0.1 nM
B1: OX40L01E07 (VHH)
VHH: EVQLVESGGGLVQAGGSLRLSCAASGRTFSSIYAKGWFRQAPGKEREFVAAISRSGRSTSYADSVKGRFTISRDNAKNTVYLQMNSLKPEDTAVYYCAAVGGATTVTASEWDYWGLGTQVTVSS
notes: monovalent Nanobody from E. coli; not shown: C-terminal c-myc and His6 tag
- binding result [4]: no binding

- IC50 [8]: 0.066 nM
- IC50 [9]: 0.102 nM
- IC50 [15]: 0.103 nM
- IC50, T cell assay with rec. hOX40L [16]: 10 nM
B2: OX40L15B07 (VHH)
VHH: EVQLVESGGGLVQAGGSLRLSCAASRSIGRLDRMGWYRHRTGEPRELVATITGGSSINYGDFVKGRFTISIDNAKNTVYLQMNNLKPEDTAVYYCNFNKYVTSRDTWGQGTQVTVSS
notes: as for B1
- binding result (hCD30L [10]): no binding (tested: starting from 100 fold molar excess)
- binding result [11]: no binding (tested: starting from 100 fold molar excess)
- binding result [12]: no binding (tested: starting from 100 fold molar excess)
- binding result (hCD40L [13]): no binding (tested: starting from 100 fold molar excess)
- binding result (hTNF-alpha [14]): no binding (tested: starting from 100 fold molar excess)

- IC50 [7]: 0.54 nM
B3: OX40L01B11 (VHH)
VHH: EVQLVESGGGLVQAGGSLRLSCVASGRSFSTYIMGWFRQAPGKEREFVATISRSGITTRSADSVKGRFTISRDNAKNTVYLQMNSLKPEDTAVYYCAAGPYVEQTLGLYQTLGPWDYWGQGTQVTVSS
notes: as for B1
- binding result (hCD30L [10]): no binding (tested: starting from 100 fold molar excess)
- binding result [11]: no binding (tested: starting from 100 fold molar excess)
- binding result [12]: no binding (tested: starting from 100 fold molar excess)
- binding result (hCD40L [13]): no binding (tested: starting from 100 fold molar excess)
- binding result (hTNF-alpha [14]): no binding (tested: starting from 100 fold molar excess)
